Experimental data: US20090317849

Columns and labels:
[1] = biological target: BSA (Bovine Serum Albumin) (UniProt P02769)
[2] = test system: T1, PKC (Protein Kinase C) matrix AAKIQASFRGHMARKK
T1 sequence: AAKIQASFRGHMARKK

[3] = test system: recombinant Mep45-kinase matrix fusion protein (PKC matrix)
[4] = test system: T2, cdc2-PK (cdc2 Protein Kinase) matrix PKTPKKAKKL
T2 sequence: PKTPKKAKKL

[5] = test system: recombinant Mep45-kinase matrix fusion protein (cdc2-PK matrix)

Chain of BSA (Bovine Serum Albumin) (P02769 25-607): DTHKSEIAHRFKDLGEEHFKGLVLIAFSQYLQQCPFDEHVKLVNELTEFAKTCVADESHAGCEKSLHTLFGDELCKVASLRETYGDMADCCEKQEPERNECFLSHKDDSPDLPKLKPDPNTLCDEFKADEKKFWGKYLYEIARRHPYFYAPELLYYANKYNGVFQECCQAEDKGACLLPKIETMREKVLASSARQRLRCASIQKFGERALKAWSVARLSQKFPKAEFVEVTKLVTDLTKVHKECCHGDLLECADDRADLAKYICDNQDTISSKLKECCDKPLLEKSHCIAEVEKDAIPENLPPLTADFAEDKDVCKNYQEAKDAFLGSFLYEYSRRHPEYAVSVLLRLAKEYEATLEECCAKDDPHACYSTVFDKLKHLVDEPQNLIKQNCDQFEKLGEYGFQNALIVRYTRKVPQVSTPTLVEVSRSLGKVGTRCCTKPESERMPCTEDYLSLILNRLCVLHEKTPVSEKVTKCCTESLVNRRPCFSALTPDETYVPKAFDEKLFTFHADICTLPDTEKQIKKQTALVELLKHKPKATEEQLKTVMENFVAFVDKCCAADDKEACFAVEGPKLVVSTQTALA

| Substance | phosphorylation on chip with [gamma-32P]ATP, X-ray film or X-ray fluorescence spectrometer [1] | phosphorylation on chip with [gamma-32P]ATP, X-ray film or X-ray fluorescence spectrometer [2] | phosphorylation on chip with [gamma-32P]ATP, X-ray film or X-ray fluorescence spectrometer [3] | phosphorylation on chip with [gamma-32P]ATP, X-ray film or X-ray fluorescence spectrometer [4] | phosphorylation on chip with [gamma-32P]ATP, X-ray film or X-ray fluorescence spectrometer [5] |
| --- | --- | --- | --- | --- | --- |
| PKC (Protein Kinase C) | no signal was detected on the spot of BSA (negative control) | clear signal was detected on the spot of AAKIQASFRGHMARKK matrix (FIG. 5A) | clear signal was detected on the spot of ... Mep45 fusion matrix (FIG. 5B) |  |  |
| cdc2 protein kinase | no signal was detected on the spot of BSA (negative control) |  |  | clear signal was detected on the spot of PKTPKKAKKL matrix (FIG. 4A) | clear signal was detected on the spot of ... Mep45 fusion matrix (FIG. 4B) |
